Test results from publication PMC11423328, “Catalytic Redundancies and Conformational Plasticity Drives Selectivity and Promiscuity in Quorum Quenching Lactonases” (JACS Au, 2024).

Columns and labels:
[1] = target: T1, GcL (Parageobacillus caldoxylosilyticus, UniProt A0A023DFE8, A156S); assay: 4-nitrophenolate release at […] nm; type: biochemical; settings: 50 mM HEPES pH 8.0 (methods; table note pH 8.3), 150 mM NaCl, CoCl2, 25 °C
T1 construct: gene GCA01S_030_00190; expressed in E. coli BL21(DE3)-pGro7/GroEL with CoCl2; bimetallic Fe/Co centre; dimer

[2] = substrate: CCCCCC(=O)N[C@H]1CCOC1=O; assay: purified protein; type: biochemical, Parageobacillus caldoxylosilyticus; settings: pH 8.3, 25 °C, 2.5 mM bicine, 150 mM NaCl, 0.2 mM CoCl2
[3] = substrate: CCCC(=O)N[C@H]1CCOC1=O; assay: purified protein; type: biochemical, Parageobacillus caldoxylosilyticus; settings: pH 8.3, 25 °C, 2.5 mM bicine, 150 mM NaCl, 0.2 mM CoCl2
[4] = substrate: CCCCCCCC(=O)N[C@H]1CCOC1=O; assay: purified protein; type: biochemical, Parageobacillus caldoxylosilyticus; settings: pH 8.3, 25 °C, 2.5 mM bicine, 150 mM NaCl, 0.2 mM CoCl2

Question: `CCOP(=O)(OCC)Oc1ccc([N+](=O)[O-])cc1` [Paraoxon, paraoxon ethyl] was tested. Which Km [1] did it give?
Answer: 964 ± 136 µM

B1: GcL (Parageobacillus caldoxylosilyticus NBRC 107762; Y222F) (protein)
chain: MANVIKARPKLYVMDNGRMRMDKNWMIAMHNPATIHNPNAQTEFVEFPIYTVLIDHPEGKILFDTSCNPNSMGPQGRWAESTQQMFPWTATEECYLHNRLEQLKVRPEDIRYVVASHLHLDHAGCLEMFTNATIIVHEDEFNGALQCYARNQKEGAYIWADIDAWIKNNLQWRTVKRHEDNILLAEGVKVLNFGSGHAWGMLGLHVELPETGGIILASDAIFTAESYGPPIKPPGIIYDSLGYMNTVERIRRIAQETKSQVWFGHDAEQFKKFRKSTEGYYE
notes: expressed in E. coli BL21(DE3)-pGro7/GroEL with CoCl2; bimetallic Fe/Co centre; dimer
Question: B1 was tested. Which Km [2] did it give?
Answer: 92.7 ± 36.7 µM

Question: What about the kcat [2] of the same molecule?
Answer: 5.01 ± 0.46 s⁻¹

Question: And the kcat/Km [2]?
Answer: 54100 ± 21900 M⁻¹ s⁻¹

Question: And the Km [3]?
Answer: 758 ± 275 µM

Question: What about the kcat [3] of the same molecule?
Answer: 0.79 ± 0.15 s⁻¹

Question: What about the kcat/Km [3] of the same molecule?
Answer: 1040 ± 430 M⁻¹ s⁻¹

B2: GcL (Parageobacillus caldoxylosilyticus NBRC 107762; A156S) (protein)
chain: MANVIKARPKLYVMDNGRMRMDKNWMIAMHNPATIHNPNAQTEFVEFPIYTVLIDHPEGKILFDTSCNPNSMGPQGRWAESTQQMFPWTATEECYLHNRLEQLKVRPEDIRYVVASHLHLDHAGCLEMFTNATIIVHEDEFNGALQCYARNQKEGSYIWADIDAWIKNNLQWRTVKRHEDNILLAEGVKVLNFGSGHAWGMLGLHVELPETGGIILASDAIYTAESYGPPIKPPGIIYDSLGYMNTVERIRRIAQETKSQVWFGHDAEQFKKFRKSTEGYYE
notes: as for B1
Question: How did the Km [3] turn out when B2 was run?
Answer: 475 ± 103 µM

Question: What about the kcat [3] of the same molecule?
Answer: 24.9 ± 2.52 s⁻¹

Question: And the kcat/Km [3]?
Answer: 52400 ± 12500 M⁻¹ s⁻¹

B3: GcL (Parageobacillus caldoxylosilyticus NBRC 107762; D121N) (protein)
chain: MANVIKARPKLYVMDNGRMRMDKNWMIAMHNPATIHNPNAQTEFVEFPIYTVLIDHPEGKILFDTSCNPNSMGPQGRWAESTQQMFPWTATEECYLHNRLEQLKVRPEDIRYVVASHLHLNHAGCLEMFTNATIIVHEDEFNGALQCYARNQKEGAYIWADIDAWIKNNLQWRTVKRHEDNILLAEGVKVLNFGSGHAWGMLGLHVELPETGGIILASDAIYTAESYGPPIKPPGIIYDSLGYMNTVERIRRIAQETKSQVWFGHDAEQFKKFRKSTEGYYE
notes: as for B1
Question: B3 was tested. Which Km [2] did it give?
Answer: 13.0 ± 6.16 µM

Question: And the kcat [2]?
Answer: 2.6 ± 0.24 s⁻¹

Question: What about the kcat/Km [2] of the same molecule?
Answer: 200000 ± 96000 M⁻¹ s⁻¹

Question: What about the Km [3] of the same molecule?
Answer: 41.0 ± 9.14 µM

Question: And the kcat [3]?
Answer: 1.74 ± 0.1 s⁻¹

Question: What about the kcat/Km [3] of the same molecule?
Answer: 42500 ± 9800 M⁻¹ s⁻¹

B4: GcL (Parageobacillus caldoxylosilyticus NBRC 107762; I236M) (protein)
chain: MANVIKARPKLYVMDNGRMRMDKNWMIAMHNPATIHNPNAQTEFVEFPIYTVLIDHPEGKILFDTSCNPNSMGPQGRWAESTQQMFPWTATEECYLHNRLEQLKVRPEDIRYVVASHLHLDHAGCLEMFTNATIIVHEDEFNGALQCYARNQKEGAYIWADIDAWIKNNLQWRTVKRHEDNILLAEGVKVLNFGSGHAWGMLGLHVELPETGGIILASDAIYTAESYGPPIKPPGMIYDSLGYMNTVERIRRIAQETKSQVWFGHDAEQFKKFRKSTEGYYE
notes: as for B1
Question: For B4, which Km [2] is on record?
Answer: 2.38 ± 0.68 µM

Question: What about the kcat [2] of the same molecule?
Answer: 0.95 ± 0.04 s⁻¹

Question: And the kcat/Km [2]?
Answer: 399000 ± 115000 M⁻¹ s⁻¹

B5: GcL (Parageobacillus caldoxylosilyticus NBRC 107762; G155P) (protein)
chain: MANVIKARPKLYVMDNGRMRMDKNWMIAMHNPATIHNPNAQTEFVEFPIYTVLIDHPEGKILFDTSCNPNSMGPQGRWAESTQQMFPWTATEECYLHNRLEQLKVRPEDIRYVVASHLHLDHAGCLEMFTNATIIVHEDEFNGALQCYARNQKEPAYIWADIDAWIKNNLQWRTVKRHEDNILLAEGVKVLNFGSGHAWGMLGLHVELPETGGIILASDAIYTAESYGPPIKPPGIIYDSLGYMNTVERIRRIAQETKSQVWFGHDAEQFKKFRKSTEGYYE
notes: as for B1
Question: What does the source list for B5?
Answer: Km [2]: 563 ± 150 µM; kcat [2]: 2.44 ± 0.31 s⁻¹; kcat/Km [2]: 4340 ± 1280 M⁻¹ s⁻¹; Km [4]: 8.22 ± 2.92 µM; kcat [4]: 1.44 ± 0.09 s⁻¹; kcat/Km [4]: 175000 ± 63000 M⁻¹ s⁻¹

B6: GcL (Parageobacillus caldoxylosilyticus NBRC 107762; A156G) (protein)
chain: MANVIKARPKLYVMDNGRMRMDKNWMIAMHNPATIHNPNAQTEFVEFPIYTVLIDHPEGKILFDTSCNPNSMGPQGRWAESTQQMFPWTATEECYLHNRLEQLKVRPEDIRYVVASHLHLDHAGCLEMFTNATIIVHEDEFNGALQCYARNQKEGGYIWADIDAWIKNNLQWRTVKRHEDNILLAEGVKVLNFGSGHAWGMLGLHVELPETGGIILASDAIYTAESYGPPIKPPGIIYDSLGYMNTVERIRRIAQETKSQVWFGHDAEQFKKFRKSTEGYYE
notes: as for B1
Question: With B6 as the molecule, how does the Km [4] read?
Answer: 19.34 ± 3.28 µM

Question: What about the kcat [4] of the same molecule?
Answer: 7.97 ± 0.33 s⁻¹

Question: What about the kcat/Km [4] of the same molecule?
Answer: 412000 ± 72000 M⁻¹ s⁻¹
